Experimental data: publication PMC5337904, “A novel cytochrome P450, CYP3201B1, is involved in (R)‐mandelonitrile biosynthesis in a cyanogenic millipede” (FEBS Open Bio, 2017)
Read-outs that look alike come from different tables or passages of the source.

How the values were obtained:
Settings in all cases: 50 nM enzyme, 2 mM NADPH, 50 mM potassium phosphate pH 6.5, 35 °C, 5 min, with yeast P450 reductase
[1] = target: CYP3201B1 (Chamberlinius hualienensis, UniProt A0A1J1DVP9)
[2] = tested on: Cc1cccc(CC#N)c1; experiment: cells, lysate or membranes
[3] = tested on: Cc1ccccc1CC#N; experiment: cells, lysate or membranes

CYP3201B1, sequence (A0A1J1DVP9 1-501 limits assumed): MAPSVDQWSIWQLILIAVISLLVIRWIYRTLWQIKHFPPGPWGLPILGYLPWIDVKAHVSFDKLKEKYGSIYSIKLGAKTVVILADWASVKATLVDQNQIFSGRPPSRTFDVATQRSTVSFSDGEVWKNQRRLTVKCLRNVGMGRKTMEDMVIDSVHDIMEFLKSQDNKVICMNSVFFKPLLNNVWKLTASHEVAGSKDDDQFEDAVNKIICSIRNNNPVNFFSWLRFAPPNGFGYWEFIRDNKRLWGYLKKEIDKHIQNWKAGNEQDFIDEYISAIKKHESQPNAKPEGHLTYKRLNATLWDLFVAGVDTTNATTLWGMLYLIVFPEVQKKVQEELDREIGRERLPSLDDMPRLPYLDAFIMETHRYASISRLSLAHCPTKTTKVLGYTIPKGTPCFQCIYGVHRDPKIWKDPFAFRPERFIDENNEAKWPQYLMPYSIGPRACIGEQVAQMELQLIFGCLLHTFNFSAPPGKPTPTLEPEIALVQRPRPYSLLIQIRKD

In the case of `N#CCc1ccc(O)cc1` [4‐HydroxyPAN], the Km [1] is reported as 15.8 ± 1.2 µM.
`N#CCc1ccccc1` [PAN] showed a Km ([1]; product (R)-mandelonitrile) of 9.2 ± 2.3 µM.
Compound CYP3201B1 (Chamberlinius hualienensis) has a Km [2] of 6.9 ± 1.3 µM, a kcat [2] of 1.09 ± 0.0433 s⁻¹ and a kcat/Km [2] of 158000 M⁻¹ s⁻¹. The Km [3] was 6.6 ± 1.6 µM, the kcat [3] was 1.12 ± 0.07 s⁻¹ and the kcat/Km [3] was 170000 M⁻¹ s⁻¹.
